Results as given in US20230374534.
Where a chain is given by its changes, count along the chain named.

B1: Thioredoxin h2 (Trx-h2), purified recombinant protein (protein)
chain: MGGALSTVFGSGEDATAAGTESEPSRVLKFSSSARWQLHFNEIKESNKLLVVDFSASWCGPCRMIEPAIHAMADKFNDVDFVKLDVDELPDVAKEFNVTAMPTFVLVKRGKEIERIIGAKKDELEKKVSKLRA
B2: Trx-h2, endogenous protein in Arabidopsis plants (protein)
chain: GGALSTVFGSGEDATAAGTESEPSRVLKFSSSARWQLHFNEIKESNKLLVVDFSASWCGPCRMIEPAIHAMADKFNDVDFVKLDVDELPDVAKEFNVTAMPTFVLVKRGKEIERIIGAKKDELEKKVSKLRA
B3: Trx-h2(C/S), redox-insensitive point mutant of Trx-h2, recombinant (protein)
chain: B1 chain with C59S, C62S

What was measured:
[1] = biological target: His-CBF1 (histidine-tagged C-repeat-binding transcription factor 1), recombinant
Sequence of His-CBF1 (histidine-tagged C-repeat-binding transcription factor 1), recombinant (chain, as listed by the source): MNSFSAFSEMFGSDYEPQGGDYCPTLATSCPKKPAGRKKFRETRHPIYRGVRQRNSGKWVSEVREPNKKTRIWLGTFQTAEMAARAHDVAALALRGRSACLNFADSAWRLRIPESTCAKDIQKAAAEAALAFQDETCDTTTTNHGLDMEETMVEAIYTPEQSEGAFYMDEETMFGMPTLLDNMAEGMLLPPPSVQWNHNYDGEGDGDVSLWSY

[2] = biological target: CBF1-Myc (from CBF1-Myc^OE Arabidopsis plants)
Sequence of CBF1-Myc (from CBF1-Myc^OE Arabidopsis plants) (chain, as listed by the source): as above

| Protein | EMSA: mobility shift of the biotin-labeled COR15a promoter probe with His-CBF1 [1] | dissociation of CBF1 oligomers into monomers (Trx system with NADPH, Trx reductase and 5 µM Trx-h2; non-reducing SDS-PAGE, western blot) [1] | cold-induced structural switching of CBF1-Myc oligomers in planta (non-reducing gel, CBF1-Myc^OE/Col-0 against CBF1-Myc^OE/trx-h2) [2] |
| --- | --- | --- | --- |
| B1 | Treatment with DTT or Trx-h2 ... induced a distinct mobility shift in the probe interacting with His-CBF1 | reduced and dissociated CBF1 oligomers into monomers |  |
| B2 |  |  | gradually dissociated into small oligomers and monomers by cold (lanes 2-4). By contrast, no structural change was detected in CBF1 extracted from CBF1-Myc^OE/trx-h2 plants |
| B3 | but not H2O2 or Trx-h2(C/S), induced a distinct mobility shift |  |  |
